Source: the supplement of paper PMC6757056
± gives the standard deviation of the averaged measurements.

B1: library; a variant is named by its letters at N, in order (parent)
chain: GCUGUCACCGGUGUAUUACCCUAGUGGUCGACCGGUCUGAUGAGUCUNNNNNNAGACGAAACAGC

Experiments:
hypoxanthine [1] = variants of: B1; assay: normalized RNA/DNA level with ligand (relative to sTRSVctl = 100) (log10 (% of sTRSVctl)); ligand: hypoxanthine (xanthine aptamer); higher = less ribozyme self-cleavage, higher mRNA level; settings: ligand concentration (+) RNA-Seq: 5 mM, HEK293T, reporter: mCherry (pCS4076), ligand present: yes
Procedure, shortened: (§1)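 HEK293T cells received ligand, where used, 1 h before being transfected with 4 µg per 6-well well of library plasmids encoding reporter-linked ribozyme switches. After 72 h, RNA was extracted with EDTA and sequenced. RNA level was derived from RNA reads per DNA read, normalized to a spiked-in non-cleaving sequence or the top sequences, then scaled and log-transformed. Values were ×100 then log10, the top set was 25 sequences, and the minimum was 100 DNA reads.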

hypoxanthine [2] = variants of: B1; assay: normalized RNA/DNA level without ligand (relative to sTRSVctl = 100) (log10 (% of sTRSVctl)); ligand: hypoxanthine (xanthine aptamer); higher = less ribozyme self-cleavage, higher mRNA level; settings: HEK293T, reporter: mCherry (pCS4076), ligand present: no
Procedure, shortened: as §1

Row | Variant | normalized RNA/DNA level with ligand (log10) (hypoxanthine [1]) | normalized RNA/DNA level without ligand (log10) (hypoxanthine [2])
1 | GCUGUCACCGGUGUAUUACCCUAGUGGUCGACCGGUCUGAUGAGUCUCCCCGAAGACGAAACAGC [CCCCGA] | 1.95 ± 0.059 | 1.81 ± 0.025
2 | GCUGUCACCGGUGUAUUACCCUAGUGGUCGACCGGUCUGAUGAGUCUGCCCAUAGACGAAACAGC [GCCCAU] | 1.929 ± 0.0057 | 1.866 ± 0.00087
3 | GCUGUCACCGGUGUAUUACCCUAGUGGUCGACCGGUCUGAUGAGUCUGCCCAAAGACGAAACAGC [GCCCAA] | 1.94 ± 0.037 | 1.8 ± 0.021
4 | GCUGUCACCGGUGUAUUACCCUAGUGGUCGACCGGUCUGAUGAGUCUGCCCACAGACGAAACAGC [GCCCAC] | 1.92 ± 0.023 | 1.76 ± 0.028
5 | GCUGUCACCGGUGUAUUACCCUAGUGGUCGACCGGUCUGAUGAGUCUACCAUGAGACGAAACAGC [ACCAUG] | 1.91 ± 0.02 | 1.571 ± 0.013
6 | GCUGUCACCGGUGUAUUACCCUAGUGGUCGACCGGUCUGAUGAGUCUGCCAGUAGACGAAACAGC [GCCAGU] | 1.92 ± 0.06 | 1.79 ± 0.046
7 | GCUGUCACCGGUGUAUUACCCUAGUGGUCGACCGGUCUGAUGAGUCUGCCAGGAGACGAAACAGC [GCCAGG] | 1.872 ± 0.0046 | 1.43 ± 0.1
8 | GCUGUCACCGGUGUAUUACCCUAGUGGUCGACCGGUCUGAUGAGUCUUCCCCGAGACGAAACAGC [UCCCCG] | 1.88 ± 0.025 | 1.5 ± 0.024
9 | GCUGUCACCGGUGUAUUACCCUAGUGGUCGACCGGUCUGAUGAGUCUUCCCCUAGACGAAACAGC [UCCCCU] | 1.996 ± 0.014 | 1.9 ± 0.023
10 | GCUGUCACCGGUGUAUUACCCUAGUGGUCGACCGGUCUGAUGAGUCUUCCCCCAGACGAAACAGC [UCCCCC] | 1.9 ± 0.075 | 1.782 ± 0.016
11 | GCUGUCACCGGUGUAUUACCCUAGUGGUCGACCGGUCUGAUGAGUCUACCCACAGACGAAACAGC [ACCCAC] | 1.921 ± 0.0048 | 1.792 ± 0.0063
12 | GCUGUCACCGGUGUAUUACCCUAGUGGUCGACCGGUCUGAUGAGUCUACCCAAAGACGAAACAGC [ACCCAA] | 1.896 ± 0.013 | 1.801 ± 0.013
13 | GCUGUCACCGGUGUAUUACCCUAGUGGUCGACCGGUCUGAUGAGUCUACCCAUAGACGAAACAGC [ACCCAU] | 1.93 ± 0.026 | 1.79 ± 0.051
14 | GCUGUCACCGGUGUAUUACCCUAGUGGUCGACCGGUCUGAUGAGUCUACCCAGAGACGAAACAGC [ACCCAG] | 1.83 ± 0.03 | 1.48 ± 0.044
15 | GCUGUCACCGGUGUAUUACCCUAGUGGUCGACCGGUCUGAUGAGUCUUCCAUUAGACGAAACAGC [UCCAUU] | 1.959 ± 0.0064 | 1.89 ± 0.05
16 | GCUGUCACCGGUGUAUUACCCUAGUGGUCGACCGGUCUGAUGAGUCUUCCAUAAGACGAAACAGC [UCCAUA] | 1.899 ± 0.018 | 1.88 ± 0.024
17 | GCUGUCACCGGUGUAUUACCCUAGUGGUCGACCGGUCUGAUGAGUCUGCCCGAAGACGAAACAGC [GCCCGA] | 2.012 ± 0.015 | 1.719 ± 0.0081
18 | GCUGUCACCGGUGUAUUACCCUAGUGGUCGACCGGUCUGAUGAGUCUACCCCUAGACGAAACAGC [ACCCCU] | 1.967 ± 0.0051 | 1.892 ± 0.0077
19 | GCUGUCACCGGUGUAUUACCCUAGUGGUCGACCGGUCUGAUGAGUCUACCCCGAGACGAAACAGC [ACCCCG] | 1.86 ± 0.032 | 1.45 ± 0.063
20 | GCUGUCACCGGUGUAUUACCCUAGUGGUCGACCGGUCUGAUGAGUCUACCCCCAGACGAAACAGC [ACCCCC] | 1.99 ± 0.16 | 1.879 ± 0.013
21 | GCUGUCACCGGUGUAUUACCCUAGUGGUCGACCGGUCUGAUGAGUCUACCCCAAGACGAAACAGC [ACCCCA] | 1.96 ± 0.031 | 1.86 ± 0.062
